Like-named read-outs stand apart in the source and are kept apart here.
How the values were obtained:
Experiment in all cases: cell-based or functional assay
[1] = target: wild type TSHR expressed in CHO cells (human) (UniProt P16473)
[2] = target: TSHR with Asp276 mutated to Ala, expressed in CHO cells (human) (UniProt P16473)
[3] = target: wild type TSHR expressed in CHO cells (human) (UniProt P16473); remark: listed apart in the source
[4] = target: TSHR with Arg274 mutated to Ala, expressed in CHO cells (human) (UniProt P16473)

TSH (ligand) gave a % inhibition of TSH stimulation, wild type TSHR; TSH (2) (run at the end of assay) [1] of 0%, a % inhibition of TSH stimulation; TSH (2) [1] of 0% and a % inhibition of TSH stimulation; TSH (2) (run at the end of assay, against the first TSH sample); Experiment 1 [1] of 0%. The % inhibition of TSH stimulation; TSH (2) (run at the end of assay, against the first TSH sample); Experiment 2 [1] was 0%, the % inhibition of TSH stimulation; TSH (2), run at the end of assay [1] was 0.2% and the % inhibition of TSH stimulation; TSH (2); Experiment 1 [1] was 0%. For the same substance, the % inhibition of TSH stimulation; TSH (2); Experiment 2 [1] was 0%, the Cyclic AMP produced (pmol/mL), 0.01 ng/mL TSH [1] was 2.29 pmol/mL and the Cyclic AMP produced (pmol/mL), 0.01 ng/mL TSH, Experiment 1 [1] was 1.8 pmol/mL. The Cyclic AMP produced (pmol/mL), 0.01 ng/mL TSH, Experiment 2 [1] was 1.3 pmol/mL, the Cyclic AMP produced (pmol/mL), 0.03 ng/mL TSH [1] was 3.56 pmol/mL and the Cyclic AMP produced (pmol/mL), 0.03 ng/mL TSH, Experiment 1 [1] was 3.91 pmol/mL. It also gave a Cyclic AMP produced (pmol/mL), 0.03 ng/mL TSH, Experiment 2 [1] of 3 pmol/mL, a Cyclic AMP produced (pmol/mL), 0.1 ng/mL TSH [1] of 8.45 pmol/mL and a Cyclic AMP produced (pmol/mL), 0.1 ng/mL TSH, Experiment 1 [1] of 8.92 pmol/mL. It also gave a Cyclic AMP produced (pmol/mL), 0.1 ng/mL TSH, Experiment 2 [1] of 6.69 pmol/mL, a Cyclic AMP produced (pmol/mL), 0.3 ng/mL TSH [1] of 26.3 pmol/mL and a Cyclic AMP produced (pmol/mL), 0.3 ng/mL TSH, Experiment 1 [1] of 33 pmol/mL. For the same substance, the Cyclic AMP produced (pmol/mL), 0.3 ng/mL TSH, Experiment 2 [1] was 26.2 pmol/mL, the Cyclic AMP produced (pmol/mL), 1 ng/mL TSH [1] was 65.7 pmol/mL and the Cyclic AMP produced (pmol/mL), 1 ng/mL TSH, Experiment 1 [1] was 76.1 pmol/mL. The Cyclic AMP produced (pmol/mL), 1 ng/mL TSH, Experiment 2 [1] was 68.1 pmol/mL, the Cyclic AMP produced (pmol/mL), 3 ng/mL TSH [1] was 77.1 pmol/mL and the Cyclic AMP produced (pmol/mL), 3 ng/mL TSH, Experiment 1 [1] was 86.2 pmol/mL. For the same substance, the Cyclic AMP produced (pmol/mL), 3 ng/mL TSH, Experiment 2 [1] was 69.8 pmol/mL, the Cyclic AMP produced (pmol/mL), TSH 0.01 ng/mL [1] was 1.56 pmol/mL and the Cyclic AMP produced (pmol/mL), TSH 0.01 ng/mL, Experiment 1 [1] was 1.37 pmol/mL. The Cyclic AMP produced (pmol/mL), TSH 0.01 ng/mL, Experiment 2 [1] was 2.1 pmol/mL, the Cyclic AMP produced (pmol/mL), TSH 0.03 ng/mL [1] was 2.42 pmol/mL and the Cyclic AMP produced (pmol/mL), TSH 0.03 ng/mL, Experiment 1 [1] was 1.58 pmol/mL. The Cyclic AMP produced (pmol/mL), TSH 0.03 ng/mL, Experiment 2 [1] was 4.48 pmol/mL, the Cyclic AMP produced (pmol/mL), TSH 0.1 ng/mL [1] was 4.09 pmol/mL and the Cyclic AMP produced (pmol/mL), TSH 0.1 ng/mL, Experiment 1 [1] was 1.83 pmol/mL. It also gave a Cyclic AMP produced (pmol/mL), TSH 0.1 ng/mL, Experiment 2 [1] of 10.3 pmol/mL, a Cyclic AMP produced (pmol/mL), TSH 0.3 ng/mL [1] of 11.4 pmol/mL and a Cyclic AMP produced (pmol/mL), TSH 0.3 ng/mL, Experiment 1 (single determination) [1] of 3.2 pmol/mL. It also gave a Cyclic AMP produced (pmol/mL), TSH 0.3 ng/mL, Experiment 2 [1] of 35.7 pmol/mL, a Cyclic AMP produced (pmol/mL), TSH 1 ng/mL [1] of 45.6 pmol/mL and a Cyclic AMP produced (pmol/mL), TSH 1 ng/mL, Experiment 1 [1] of 15.9 pmol/mL. For the same substance, the Cyclic AMP produced (pmol/mL), TSH 1 ng/mL, Experiment 2 [1] was 72 pmol/mL, the Cyclic AMP produced (pmol/mL), TSH 3 ng/mL [1] was 77.9 pmol/mL and the Cyclic AMP produced (pmol/mL), TSH 3 ng/mL, Experiment 1 [1] was 47.6 pmol/mL. The Cyclic AMP produced (pmol/mL), TSH 3 ng/mL, Experiment 2 [1] was 79.2 pmol/mL, the Cyclic AMP produced, TSH 0.01 ng/mL, wild type TSHR [1] was 2.28 pmol/mL and the Cyclic AMP produced, TSH 0.03 ng/mL, wild type TSHR [1] was 3.77 pmol/mL. For the same substance, the Cyclic AMP produced, TSH 0.1 ng/mL, wild type TSHR [1] was 9.55 pmol/mL, the Cyclic AMP produced, TSH 0.3 ng/mL, wild type TSHR [1] was 28.8 pmol/mL and the Cyclic AMP produced, TSH 1 ng/mL, wild type TSHR [1] was 76.8 pmol/mL. For the same substance, the Cyclic AMP produced, TSH 3 ng/mL, wild type TSHR [1] was 93.1 pmol/mL, the Cyclic AMP produced, wild type TSHR, TSH 0.01 ng/mL (Experiment 1) [1] was 1.69 pmol/mL and the Cyclic AMP produced, wild type TSHR, TSH 0.01 ng/mL (Experiment 2) [1] was 4.16 pmol/mL. For the same substance, the Cyclic AMP produced, wild type TSHR, TSH 0.03 ng/mL (Experiment 1) [1] was 2.46 pmol/mL, the Cyclic AMP produced, wild type TSHR, TSH 0.03 ng/mL (Experiment 2) [1] was 4.92 pmol/mL and the Cyclic AMP produced, wild type TSHR, TSH 0.1 ng/mL (Experiment 1) [1] was 6.18 pmol/mL. For the same substance, the Cyclic AMP produced, wild type TSHR, TSH 0.1 ng/mL (Experiment 2) [1] was 11.2 pmol/mL, the Cyclic AMP produced, wild type TSHR, TSH 0.3 ng/mL (Experiment 1) [1] was 18.9 pmol/mL and the Cyclic AMP produced, wild type TSHR, TSH 0.3 ng/mL (Experiment 2) [1] was 31.4 pmol/mL. It also gave a Cyclic AMP produced, wild type TSHR, TSH 1 ng/mL (Experiment 1) [1] of 45.2 pmol/mL, a Cyclic AMP produced, wild type TSHR, TSH 1 ng/mL (Experiment 2) [1] of 74.3 pmol/mL and a Cyclic AMP produced, wild type TSHR, TSH 3 ng/mL (Experiment 1) [1] of 61.6 pmol/mL. The Cyclic AMP produced, wild type TSHR, TSH 3 ng/mL (Experiment 2) [1] was 96.4 pmol/mL, the Cyclic AMP produced; TSH 3 ng/mL [1] was 85 pmol/mL and the Cyclic AMP produced; TSH 3 ng/mL alone [1] was 83.8 pmol/mL. The Cyclic AMP produced; TSH 3 ng/mL; Experiment 1 [1] was 68.8 pmol/mL, the Cyclic AMP produced; TSH 3 ng/mL; Experiment 2 [1] was 97.9 pmol/mL and the Cyclic AMP produced; TSH (2) [1] was 93.5 pmol/mL. For the same substance, the Cyclic AMP produced; TSH (2) 3 ng/mL, run at the end of assay [1] was 83.6 pmol/mL, the Cyclic AMP produced; TSH (2); Experiment 1 [1] was 74.3 pmol/mL and the Cyclic AMP produced; TSH (2); Experiment 2 [1] was 102 pmol/mL. For the same substance, the Experiment 1: % inhibition of TSH stimulation; TSH (2), run at the end of assay [1] was 0%, the Experiment 1; % inhibition of TSH stimulation; TSH (2) 3 ng/mL, run at the end of assay [1] was 5% and the Experiment 1; cyclic AMP produced; TSH 3 ng/mL [1] was 78 pmol/mL. The Experiment 1; cyclic AMP produced; TSH (2) 3 ng/mL, run at the end of assay [1] was 74.3 pmol/mL, the Experiment 2: % inhibition of TSH stimulation; TSH (2), run at the end of assay [1] was 0% and the Experiment 2; % inhibition of TSH stimulation; TSH (2) 3 ng/mL, run at the end of assay [1] was 3%. For the same substance, the Experiment 2; cyclic AMP produced; TSH 3 ng/mL [1] was 95.8 pmol/mL, the Experiment 2; cyclic AMP produced; TSH (2) 3 ng/mL, run at the end of assay [1] was 92.9 pmol/mL and the % inhibition of TSH stimulation; TSH (2) ([1]; record 2) was 0%. The % inhibition of TSH stimulation; TSH (2); Experiment 1 ([1]; record 2) was 0%, the % inhibition of TSH stimulation; TSH (2); Experiment 2 ([1]; record 2) was 0% and the Cyclic AMP produced; TSH 3 ng/mL ([1]; record 2) was 76.2 pmol/mL. It also gave a Cyclic AMP produced; TSH 3 ng/mL; Experiment 1 ([1]; record 2) of 154 pmol/mL, a Cyclic AMP produced; TSH 3 ng/mL; Experiment 2 ([1]; record 2) of 59.9 pmol/mL and a Cyclic AMP produced; TSH (2) ([1]; record 2) of 93.8 pmol/mL. The Cyclic AMP produced; TSH (2); Experiment 1 ([1]; record 2) was 160 pmol/mL, the Cyclic AMP produced; TSH (2); Experiment 2 ([1]; record 2) was 61.5 pmol/mL and the Cyclic AMP produced (pmol/mL), TSH 0.01 ng/mL [2] was 14.3 pmol/mL. It also gave a Cyclic AMP produced (pmol/mL), TSH 0.03 ng/mL [2] of 17.6 pmol/mL, a Cyclic AMP produced (pmol/mL), TSH 0.1 ng/mL [2] of 21.7 pmol/mL and a Cyclic AMP produced (pmol/mL), TSH 0.3 ng/mL [2] of 45.6 pmol/mL. For the same substance, the Cyclic AMP produced (pmol/mL), TSH 1 ng/mL [2] was 68.3 pmol/mL, the Cyclic AMP produced (pmol/mL), TSH 3 ng/mL [2] was 76 pmol/mL and the Experiment 1; % inhibition of TSH stimulation; TSH (2) 3 ng/mL, run at the end of assay [2] was 6%. For the same substance, the Experiment 1; Mutated/wild type (%) of cyclic AMP produced; TSH 3 ng/mL [2] was 91%, the Experiment 1; Mutated/wild type (%) of cyclic AMP produced; TSH (2) 3 ng/mL, run at the end of assay [2] was 90% and the Experiment 1; cyclic AMP produced; TSH 3 ng/mL [2] was 71.2 pmol/mL. It also gave an Experiment 1; cyclic AMP produced; TSH (2) 3 ng/mL, run at the end of assay [2] of 67 pmol/mL, an Experiment 2; % inhibition of TSH stimulation; TSH (2) 3 ng/mL, run at the end of assay [2] of 18% and an Experiment 2; Mutated/wild type (%) of cyclic AMP produced; TSH 3 ng/mL [2] of 78%. For the same substance, the Experiment 2; Mutated/wild type (%) of cyclic AMP produced; TSH (2) 3 ng/mL, run at the end of assay [2] was 66%, the Experiment 2; cyclic AMP produced; TSH 3 ng/mL [2] was 74.8 pmol/mL and the Experiment 2; cyclic AMP produced; TSH (2) 3 ng/mL, run at the end of assay [2] was 61.2 pmol/mL. The Mutated/Wild type (%), TSH 0.01 ng/mL [2] was 583%, the Mutated/Wild type (%), TSH 0.03 ng/mL [2] was 369% and the Mutated/Wild type (%), TSH 0.1 ng/mL [2] was 134%. The Mutated/Wild type (%), TSH 0.3 ng/mL [2] was 103%, the Mutated/Wild type (%), TSH 1 ng/mL [2] was 88% and the Mutated/Wild type (%), TSH 3 ng/mL [2] was 80%. The % inhibition of TSH stimulation; TSH (2) 3 ng/mL, run at the end of assay [3] was 0%, the Cyclic AMP produced; TSH 3 ng/mL [3] was 97.1 pmol/mL and the Cyclic AMP produced; TSH (2) 3 ng/mL, run at the end of assay [3] was 109 pmol/mL. It also gave a % inhibition of TSH stimulation; TSH (2) 3 ng/mL, run at the end of assay [4] of 0%, a Cyclic AMP produced; TSH 3 ng/mL [4] of 99.2 pmol/mL and a Cyclic AMP produced; TSH (2) 3 ng/mL, run at the end of assay [4] of 100 pmol/mL. The Mutated/wild type (%) of cyclic AMP produced; TSH 3 ng/mL [4] was 102% and the Mutated/wild type (%) of cyclic AMP produced; TSH (2) 3 ng/mL, run at the end of assay [4] was 92%.

— patent US20110300138A1 (published 2011)
